Paper PMC3176292, “Mutations in Protein-Binding Hot-Spots on the Hub Protein Smad3 Differentially Affect Its Protein Interactions and Smad3-Regulated Gene Expression” (PLoS ONE, 2011)

How the values were obtained:
Conditions in all cases: partners not purified
[1] = target: T1, Smurf2 Smad-binding domain (amino acids 252–330) on the Flag-thioredoxin scaffold (UniProt Q9HAU4 252-330); test: co-IP; LUMIER: Renilla luciferase-Smad3 and Flag-tagged partner co-expressed with constitutively active Alk5 in HEK-293; Flag protein captured from cleared lysate (TNE: 10 mM Tris-HCl pH 7.8, 150 mM NaCl, 1 mM EDTA, 1% Igepal CA-630) on anti-Flag 96-well plates, 2 h at 4 °C; co-precipitated Renilla luciferase activity, TrxGA background subtracted, percent of wild-type Smad3
T1 construct: Smurf2, amino acids 252–330; also called Smurf2 aa252–330; TrxSmurf2; source: HEK-293, transfected, in lysate

[2] = target: T2, SARA Smad-binding domain (amino acids 665–721) on the 3xFlag-thioredoxin scaffold (UniProt O95405 767-823); test: as above
T2 construct: SARA, amino acids 665–721; cloned into the unique RsrII site of pCI-3xFLAG-Trx; also called SARA aa665–721; TrxSARA; source: HEK-293, transfected, in lysate
T2 sequence (looked up): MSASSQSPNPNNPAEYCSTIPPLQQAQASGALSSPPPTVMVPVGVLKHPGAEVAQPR

[3] = target: T3, Ski Smad-binding domain (amino acids 2–56) on the 3xFlag-thioredoxin scaffold (UniProt P12755 2-56); test: as above
T3 construct: Ski, amino acids 2–56; cloned into the unique RsrII site of pCI-3xFLAG-Trx; also called Ski aa2–56; TrxSki; source: HEK-293, transfected, in lysate
T3 sequence (looked up): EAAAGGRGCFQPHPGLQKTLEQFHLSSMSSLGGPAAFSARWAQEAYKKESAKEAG

[4] = target: T2, SARA Smad-binding domain (amino acids …); test: co-IP; LUMIER as a1 but without co-expression of the activated Alk5 kinase (Smad3 not phosphorylated); percent of phosphorylated wild-type Smad3
Flag-Smad4, full length = target: T4, Flag-Smad4, full length (UniProt Q13485 1-552); test: co-IP; LUMIER: Renilla luciferase-Smad3 and Flag-tagged partner co-expressed with constitutively active Alk5 in HEK-293; Flag protein captured from cleared lysate (TNE: 10 mM Tris-HCl pH 7.8, 150 mM NaCl, 1 mM EDTA, 1% Igepal CA-630) on anti-Flag 96-well plates, 2 h at 4 °C; co-precipitated Renilla luciferase activity, TrxGA background subtracted, percent of wild-type Smad3
T4 construct: Smad4; plasmid pCMV5-Flag-Smad4 (from J. Massagué); also called Smad4 FL; source: HEK-293, transfected, in lysate
T4 sequence (looked up): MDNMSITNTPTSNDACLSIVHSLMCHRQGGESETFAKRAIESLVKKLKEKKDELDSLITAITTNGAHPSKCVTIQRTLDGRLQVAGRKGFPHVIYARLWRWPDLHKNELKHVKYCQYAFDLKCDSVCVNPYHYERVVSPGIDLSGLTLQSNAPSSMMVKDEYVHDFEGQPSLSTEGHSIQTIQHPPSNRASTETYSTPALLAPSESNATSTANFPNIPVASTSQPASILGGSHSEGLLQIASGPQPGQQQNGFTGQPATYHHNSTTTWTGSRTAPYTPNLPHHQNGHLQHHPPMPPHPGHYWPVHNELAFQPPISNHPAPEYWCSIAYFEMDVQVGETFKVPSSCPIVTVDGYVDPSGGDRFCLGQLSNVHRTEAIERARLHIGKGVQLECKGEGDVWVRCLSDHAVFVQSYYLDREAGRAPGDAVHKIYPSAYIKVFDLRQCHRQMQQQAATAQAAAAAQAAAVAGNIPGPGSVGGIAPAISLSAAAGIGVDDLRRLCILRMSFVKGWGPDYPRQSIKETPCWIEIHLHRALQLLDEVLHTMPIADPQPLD

T1 sequence (Q9HAU4 252-330): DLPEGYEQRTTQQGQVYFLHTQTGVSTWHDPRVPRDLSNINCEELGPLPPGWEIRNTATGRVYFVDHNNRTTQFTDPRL

B1: Renilla luciferase-Smad3 wild type, co-expressed with constitutively active Alk5 (phosphorylated Smad3) (natural protein, UniProt P84022 1-425, looked up)
chain: MSSILPFTPPIVKRLLGWKKGEQNGQEEKWCEKAVKSLVKKLKKTGQLDELEKAITTQNVNTKCITIPRSLDGRLQVSHRKGLPHVIYCRLWRWPDLHSHHELRAMELCEFAFNMKKDEVCVNPYHYQRVETPVLPPVLVPRHTEIPAEFPPLDDYSHSIPENTNFPAGIEPQSNIPETPPPGYLSEDGETSDHQMNHSMDAGSPNLSPNPMSPAHNNLDLQPVTYCEPAFWCSISYYELNQRVGETFHASQPSMTVDGFTDPSNSERFCLGLLSNVNRNAAVELTRRHIGRGVRLYYIGGEVFAECLSDSAIFVQSPNCNQRYGWHPATVCKIPPGCNLKIFNNQEFAALLAQSVNQGFEAVYQLTRMCTIRMSFVKGWGAEYRRQTVTSTPCWIELHLNGPLQWLDKVLTQMGSPSIRCSSVS
modifications: phosphorylated by the co-expressed activated Alk5 kinase (sites not given)
notes: Smad3; plasmid pCMV5-hRLuc-Smad3 (from J. Wrana); also called Smad3 WT+Alk5; Renilla-Smad3; source: HEK-293, transfected together with constitutively active Alk5, in lysate
[1]
  percent binding relative to wild-type Smad3: 100%
[2]
  percent binding relative to wild-type Smad3: 100%
[3]
  percent binding relative to wild-type Smad3: 100%

B2: Renilla luciferase-Smad3 wild type, without Alk5 (not phosphorylated) (natural protein, UniProt P84022 1-425, looked up)
chain: B1 chain
notes: Smad3; also called Smad3 WT, No Alk5; source: HEK-293, transfected without Alk5, in lysate
[4]
  percent binding relative to wild-type Smad3: 78%

B3: Renilla luciferase-Smad3 QPSMT/SE mutant (residues 252–256 and 266–267 changed to the Smad1 equivalents STSVL/NKN) (natural protein, UniProt P84022 1-425, looked up)
chain: MSSILPFTPPIVKRLLGWKKGEQNGQEEKWCEKAVKSLVKKLKKTGQLDELEKAITTQNVNTKCITIPRSLDGRLQVSHRKGLPHVIYCRLWRWPDLHSHHELRAMELCEFAFNMKKDEVCVNPYHYQRVETPVLPPVLVPRHTEIPAEFPPLDDYSHSIPENTNFPAGIEPQSNIPETPPPGYLSEDGETSDHQMNHSMDAGSPNLSPNPMSPAHNNLDLQPVTYCEPAFWCSISYYELNQRVGETFHASSTSVLVDGFTDPSNNKNRFCLGLLSNVNRNAAVELTRRHIGRGVRLYYIGGEVFAECLSDSAIFVQSPNCNQRYGWHPATVCKIPPGCNLKIFNNQEFAALLAQSVNQGFEAVYQLTRMCTIRMSFVKGWGAEYRRQTVTSTPCWIELHLNGPLQWLDKVLTQMGSPSIRCSSVS
notes: Smad3 with two stretches replaced by those of Smad1; source plasmid pcDNA3-Flag-Smad3(STSVL/NKN) from K. Miyazono; assayed as Renilla fusion; also called Smad3(STSVL/NKN); Smad1/3 chimeric protein; source: HEK-293, transfected together with constitutively active Alk5, in lysate
Flag-Smad4, full length
  percent binding relative to wild-type Smad3: 132%
[1]
  percent binding relative to wild-type Smad3: 86%
[2]
  percent binding relative to wild-type Smad3: 61%
[3]
  percent binding relative to wild-type Smad3: 4%
